Results reported in patent US20040171549A1.

Biological target: integrin alpha v beta 3 present at the surface of the endothelial cells (CPAE) (bovine (calf pulmonary artery endothelial cells)) (UniProt P80746)
Assay: cell-based or functional assay

Chain of UniProt P80746 (P80746 31-1048): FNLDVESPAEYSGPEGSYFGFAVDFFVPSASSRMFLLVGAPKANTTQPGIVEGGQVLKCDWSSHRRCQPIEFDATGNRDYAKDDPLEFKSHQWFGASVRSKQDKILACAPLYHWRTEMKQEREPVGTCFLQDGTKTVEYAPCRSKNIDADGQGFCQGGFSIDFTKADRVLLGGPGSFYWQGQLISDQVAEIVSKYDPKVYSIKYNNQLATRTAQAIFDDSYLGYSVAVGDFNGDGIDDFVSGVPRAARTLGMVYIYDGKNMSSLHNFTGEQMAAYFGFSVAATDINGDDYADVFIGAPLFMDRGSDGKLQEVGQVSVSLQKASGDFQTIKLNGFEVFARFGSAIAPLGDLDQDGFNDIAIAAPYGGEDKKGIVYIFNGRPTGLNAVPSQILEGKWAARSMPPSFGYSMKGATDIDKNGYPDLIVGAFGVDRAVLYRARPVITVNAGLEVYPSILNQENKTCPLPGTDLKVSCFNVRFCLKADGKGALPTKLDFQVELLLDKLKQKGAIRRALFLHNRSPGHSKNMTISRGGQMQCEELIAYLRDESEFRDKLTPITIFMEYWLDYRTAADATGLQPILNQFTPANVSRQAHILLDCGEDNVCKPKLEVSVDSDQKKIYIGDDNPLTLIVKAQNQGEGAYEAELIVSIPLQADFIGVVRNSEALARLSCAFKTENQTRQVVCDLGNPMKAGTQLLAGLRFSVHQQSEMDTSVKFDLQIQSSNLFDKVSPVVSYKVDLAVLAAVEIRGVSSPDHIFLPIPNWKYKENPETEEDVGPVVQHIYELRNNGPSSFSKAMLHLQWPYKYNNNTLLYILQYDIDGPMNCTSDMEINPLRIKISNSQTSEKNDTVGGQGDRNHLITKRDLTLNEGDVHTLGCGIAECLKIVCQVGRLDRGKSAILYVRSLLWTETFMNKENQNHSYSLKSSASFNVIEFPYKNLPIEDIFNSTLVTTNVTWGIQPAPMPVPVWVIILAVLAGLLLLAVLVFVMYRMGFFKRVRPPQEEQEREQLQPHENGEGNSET

1.4-kDa fragment of AMEP constituted of 12 amino acids with the sequence RGDC (peptide)
inhibition of the adhesion of the cells on fibrinogen: 50% | inhibition of the adhesion of the cells on vitronectin: 49%
